According to publication PMC12243203:

Biological target: recombinant His-EtSERPIN1 protein (Eimeria tenella)

**Q.** With “recombinant His-tag GgANXA2 protein (from UniProt P17785 1-339) (natural protein)” as the substance, how does the adhesion rate to DF-1 cells of yeast cells displaying EtSERPIN1 that were pre-incubated with recombinant GgANXA2 protein (PBS group: 26.75%) read?
**A.** 44.3%
